Data reported in patent US20240165226A1, “COMBINATION TREATMENT OF CD38-EXPRESSING TUMORS” (GENMAB A/S, priority 2006, published 2024).

Experiments:
[1] = molecular target: T1, CD38-transfected CHO (CHO-CD38) cells (Homo sapiens, UniProt P28907); test: Binding to CD38-transfected CHO cells by flow cytometry; details: for binding to CHO-CD38 cells: in words
T1 construct: expressed in transfected cells; host or cells: CHO cells
Procedure: After harvesting and counting, Daudi-luc cells, CHO cells transfected with CD38 and control CHO cells were resuspended in PBS (1×10^6 cells/ml). Then, cells were put in 96-well V-bottom plates (100 μl/well) and washed twice in PBS-BSA (PBS supplemented with 0.1% BSA and 0.02% Na-azide). Thereafter, 50 μl antibody solution in PBS-BSA was added to the cells (4° C., 30 min). After washing three times in PBS-BSA, 50 μl (1:400 dilution) of rabbit anti-human IgG-FITC in PBS-BSA was added (4° C. in the dark, 30 min). Cells were washed three times and specific binding of CD38-antibodies to CHO-CD38 and Daudi-luc cells was detected by flow cytometry. HuMab-KLH (a human monoclonal antibody against KLH (keyhole limpet haemocyanin) generated by Genmab B.V., Utrecht, The Netherlands by use of the immunization protocols described elsewhere herein) was used as a control. […] No binding to control CHO cells is observed (data not shown).

[2] = tested on: PBMCs; test: Induction of IL-6 release by PBMC; type: cell-based, human; details: 20 μg/ml antibody and 10 ng/ml LPS, 7 donors
Procedure: -003, -005 and -024 were tested in an assay as described in Ausiello et al., Tissue antigens 56, 538-547 (2000). Briefly, PBMCs were cultured at 1×10^6 cells/well in 48-well plates in the presence of 20 μg/ml of antibodies and 10 ng/ml LPS (Sigma-Aldrich Chemie, Zwijndrecht, The Netherlands) in 500 μl RPMI^++. After an O/N incubation at 37° C., supernatant was harvested and stored at −20° C. The IL-6 concentration was assessed by ELISA (IL-6 ELISA kit, U-CyTech Biosciences, Utrecht, The Netherlands) according to the manufacturer's instructions. Data are shown mean concentration in pg/ml (±SEM) from 7 donors.

[3] = tested on: PBMCs; test: Induction of proliferation of PBMC; type: cell-based, human; details: 1.1-30 μg/ml, 3H-thymidine incorporation, 10 donors
Procedure: -003, -005 and -024 were tested in an assay essentially as described in Ausiello et al., Tissue antigens 56, 538-547 (2000). Briefly, PBMCs from healthy donors were cultured at 1×10^5 cells/well in flat bottom 96-well plates in the presence of antibodies (final concentration: 1.1-3.3-10-30 μg/ml) in 200 μl RPMI^++. Stimulation of cells with IL-15 (at 333 ng/ml; Amgen Inc., Thousand Oaks, CA, USA) was used as positive control. After a 4 day incubation at 37° C., 30 μl ^3H-thymidine (16.7 μCi/ml) was added, and culture was continued O/N. ^3H-thymidine incorporation was assessed using a […] (Packard Instruments, Meriden, DT, USA), according to the manufacturer's instructions. Data are shown as the mean cpm (±SEM) of PBMCs obtained from 10 donors.

[4] = tested on: Daudi-luc tumor cells; test: In vivo SCID-luciferase experiments; set-up: species or system SCID mice
Source text: In this model tumor cells are transfected with firefly luciferase. Upon administration of luciferin (Molecular Probes, Leiden, The Netherlands) to the mice the labeled cells can be detected in vivo by bioluminescent imaging using a highly sensitive CCD camera, cf. Wetterwald et al., American Journal of Pathology 160(3), 1143-1153 (2002).
Daudi cells were transfected with gWIZ luciferase from Gene Therapy Systems (San Diego, CA) and cultured in RPMI with 10% FCS, Pen/Strep, Sodium Pyruvate and 1 μg/ml puromycin (Sigma). Cells were analysed for luciferase expression (expressed in RLU/1×10^5 cells) in a luminometer and for CD38 expression by FACS. 2.5×10^6 luciferase-transfected Daudi cells/mouse were injected i.v. into SCID mice. Mice were treated with -003, -005, isotype control antibody (HuMab-KLH) or rituximab (anti-CD20 antibody). Antibodies were injected intraperitoneally. Four treatment settings were used (see Table 4). In the preventive setting, antibody (100 μg/mouse) and cells were administered simultaneously. In therapeutic setting I, antibody (300 μg/mouse) was administered 7 days after administration of cells. In therapeutic setting II, antibody (10 μg/mouse) was administered 14 days after administration of cells. In therapeutic setting III, antibody (100 μg/mouse) was administered 7 days after administration of cells. For imaging, mice were anesthetized by i.p. injection of a mixture of ketamine/xylazine/atropine. Synthetic D-Luciferin (sodium salt, Molecular Probes) was given i.p. at a dose of 25 mg/ml. Mice were then placed in a light tight box and after 3 min, imaging was started using a VersArray 1300B liquid nitrogen cooled CCD detector (Roper Scientific). Photons emitted from the luciferase were counted over an exposure period of 5 min. Under illumination black and white images were made for reference. MetaVue software (Universal Imaging Corp) was used for data collection and image analysis. Statistical significance of differences between groups was established using one-way analysis of variance with a Newman-Keuls post test using GraphPad PRISM version 3.02 (Graphpad Software Inc).

Molecule	EC50 CHO-CD38 ([1]; binding, flow cytometry) [µg/mL]	binding to CHO-CD38 cells [1]	release of IL-6 [2]	proliferation of PBMCs [3]	inhibition of growth of tumor cells ([4]; preventive setting, 100 μg/mouse, day 0, i.p.)	inhibition of growth of tumor cells ([4]; therapeutic setting I, 300 μg/mouse, day 7, i.p.)	inhibition of Daudi-luc tumor cell growth ([4]; therapeutic setting III, 100 μg/mouse, day 7, i.p.)
-005: human monoclonal IgG1 anti-CD38 antibody, VL region SEQ ID No:12 and VH region SEQ ID No:17	0.23	bind	does not induce release of significant IL-6 levels	do not induce significant proliferation	inhibit growth of tumor cells	inhibit growth of tumor cells	
-024: human monoclonal IgG1 anti-CD38 antibody, VL region SEQ ID No:22 and VH region SEQ ID No:27 (antibody, listed as Homo sapiens, V domains shown) VH: EVQLVQSGAEVKKPGESLKISCKGSGYSFSNYWIGWVRQMPGKGLEWMGIIYPHDSDARYSPSFQGQVTFSADKSISTAYLQWSSLKASDTAMYYCARHVGWGSRYWYFDLWGRGTLVTVSS VL: EIVLTQSPATLSLSPGERATLSCRASQSVSSYLAWYQQKPGQAPGLLIYDASNRASGIPARFSGSGSGTDFTLTISSLEPEDFAVYYCQQRSNWPLTFGGGTKVEIK		bind	did not induce release of significant IL-6 levels	did not induce significant proliferation			clear inhibition
